Results on 3 molecules are retold here after publication PMC6294937, “Structure and architecture of immature and mature murine leukemia virus capsids” (Proceedings of the National Academy of Sciences of the …, 2018).

Where “and” joins values, the source holds several entries; their conditions need not be identical. Equal values may be shown once.

The target of series [1] is truncated MLV CA-CTD (residues 132–218, CA-CTDΔCAH) (murine leukemia virus (MLV)). Nature of the series: crystal structure; X-ray, SAD with cobalt, 1.89 Å, space group P3(1)21; crystals grown at 20 °C, 37 mg/mL protein, 4% PEG 3350, 0.1 M Hepes pH 8.2, 5 mM each CoCl2, CdCl2, MgCl2, NiCl2.
Series [2] addresses MLV Gag polyprotein in immature virus particles (immature CA lattice) (murine leukemia virus (MLV)). Nature of the series: cryo-EM structure; cryo-ET and subtomogram averaging of the CA layer in purified, fixed immature MLV particles (PR D32L); 79 particles, sixfold symmetry, 6.6 Å; crystal structures fitted as rigid bodies.
Series [3] deals with the molecule itself. Description: cryo-EM structure; cryo-ET and subtomogram averaging of the CA lattice in purified, fixed mature MLV particles; 134 virions; hexamer 7.2 Å, pentamer 8.6 Å; repeated with a second preparation (8.1 Å); crystal structures fitted as rigid bodies.

The stoichiometry N is the number of molecules, sites or subunits per partner or assembly. Turning to “truncated MLV CA-CTD (residues 132–218, CA-CTDΔCAH) (domain or fragment)”, the stoichiometry N in series [1] came out at 2. In turn, “MLV Gag polyprotein in immature virus particles (immature CA lattice) (natural protein)” registered a stoichiometry N in series [2] of 6.

B1: MLV CA (capsid) protein in mature virus particles (mature CA lattice) (natural protein)
chain: PLRAGGNGQLQYWPFSSSDLYNWKNNNPSFSEDPGKLTALIESVLITHQPTWDDCQQLLGTLLTGEEKQRVLLEARKAVRGDDGRPTQLPNEVDAAFPLERPDWDYTTQAGRNHLVHYRQLLLAGLQNAGRSPTNLAKVKGITQGPNESPSAFLERLKEAYRRYTPYDPEDPGQETNVSMSFIWQSAPDIGRKLERLEDLKNKTLGDLVREAEKIFNKRETPEEREERIRRETEEKEERRRTEDEQKEKERDRRRHREMSKLL
notes: CA (capsid) protein of murine leukemia virus, the product of cleavage of Gag by the viral protease; 263 residues (CA-CTD printed as residues 132-263); numbers count on: the CA protein; also called mature MLV CA; mature CA hexamer; source: HEK293T, transfected with the infectious clone pRR390; in purified mature virus particles, fixed with 1% paraformaldehyde
Consider B1, for which, in series [3], the “stoichiometry N” value is 6 and 5.
